Data published in doi:10.1101/2024.02.12.579961 (bioRxiv, 2024).

B1: MBP-tagged IAA3/SHY2 (wild type), recombinant (natural protein, Arabidopsis thaliana, UniProt Q38822 1-189, looked up)
chain: MDEFVNLKETELRLGLPGTDNVCEAKERVSCCNNNNKRVLSTDTEKEIESSSRKTETSPPRKAQIVGWPPVRSYRKNNIQSKKNESEHEGQGIYVKVSMDGAPYLRKIDLSCYKGYSELLKALEVMFKFSVGEYFERDGYKGSDFVPTYEDKDGDWMLIGDVPWEMFICTCKRLRIMKGSEAKGLGCGV
B2: MBP-tagged IAA19/MSG2, recombinant (natural protein, Arabidopsis thaliana, UniProt O24409 1-197, looked up)
chain: MEKEGLGLEITELRLGLPGRDVAEKMMKKRAFTEMNMTSSGSNSDQCESGVVSSGGDAEKVNDSPAAKSQVVGWPPVCSYRKKNSCKEASTTKVGLGYVKVSMDGVPYLRKMDLGSSQGYDDLAFALDKLFGFRGIGVALKDGDNCEYVTIYEDKDGDWMLAGDVPWGMFLESCKRLRIMKRSDATGFGLQPRGVDE

Target: the molecule itself
Experiment: non-reducing SDS-PAGE

Row | Protein | binding result
1 | B1 | binds
2 | B2 | binds
